In patent US5679770A, “Polypeptide, DNA fragment encoding the same, drug composition containing the same and process for producing the same” (Mochida Pharmaceutical Co., Ltd., priority 1991, dated 1997):

Legend:
[1] = biological target: T1, Human neutrophil elastase (Homo sapiens, UniProt P08246); assay: Human elastase-inhibiting activity (substrate STANA); type: biochemical; conditions: for elastase-inhibiting activity, times higher than that of polypeptide Q19K/Y46D: relative to Q19K/Y46D; for elastase-inhibiting activity, times higher than that of polypeptide AN68: relative to control AN68
T1 construct: purchased CALBIOCHEM
T1 sequence (P08246 30-267): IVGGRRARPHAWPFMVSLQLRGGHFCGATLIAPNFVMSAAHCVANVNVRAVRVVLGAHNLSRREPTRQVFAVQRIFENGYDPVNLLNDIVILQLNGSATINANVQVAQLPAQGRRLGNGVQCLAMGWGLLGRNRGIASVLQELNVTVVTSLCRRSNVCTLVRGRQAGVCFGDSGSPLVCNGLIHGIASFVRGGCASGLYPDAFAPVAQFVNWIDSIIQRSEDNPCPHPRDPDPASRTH
Method: The purified polypeptide of the present invention was dissolved in 100 μl of distilled water. The concentration of this solution was determined based on its bovine trypsin-inhibiting activity using UTI as a standard. The solution was then diluted to various concentration levels with 0.1% BSA/27 mM CaCl2 /133 mM Tris-HCl buffer (pH 7.5) for use in the activity measurement. The aforementioned AN68 was also diluted in the same manner for use as a control. Human elastase-inhibiting activities in the test samples and the control were measured in accordance with the method of Ogawa et al. (Ogawa, M. et al., Res. Commun. Chem. Pathol. Pharmacol., vol.55, pp.271-274, 1987) using a synthetic compound STANA (Peptide Institute Inc.) as a substrate.
Human neutrophil elastase (CALBIOCHEM) was dissolved in 27 mM CaCl2 /133 mM Tris-HCl buffer (pH 7.5) to a concentration of 100 μg/ml and the solution was further diluted with 0.1% BSA/27 mM CaCl2 /133 mM Tris-HCl buffer (pH 7.5) to prepare a 4 μg/ml elastase solution. 100 mM STANA solution was prepared by dissolving it in N-methyl-2-pyrrolidone and the solution was further diluted with 0.1% BSA/27 mM CaCl2 /133 mM Tris-HCl buffer (pH 7.5) to prepare a 20 mM STANA solution.
Next, 50 μl of the test sample or positive control was mixed with 50 μl of the elastase solution and 50 μl of 0.1% BSA/27 mM CACl2 /133 mM Tris-HCl buffer (pH 7.5). After incubation at 37° C. for 10 minutes, 50 μl of the STANA solution was added to the mixture to start the reaction. The reaction was carried out at 37° C. for 20 minutes and then stopped by adding 50 μl of 50% acetic acid solution to the reaction mixture. Thereafter, absorbance at a wavelength of 405 nm was measured using a spectrophotometer. In this instance, in order to eliminate absorbance of various solutions in the reaction product, a blank solution was prepared by mixing 50 μl of the elastase solution with 50 μl of 50% acetic acid and then with 50 μl of each test sample or the control, 50 μl of 0.1% BSA/27 mM CaCl2 /133 mM Tris-HCl buffer (pH 7.5) and with 50 μl of the STANA solution.
The results are shown in FIG. 54 and FIG. 55 and FIG. 67 to FIG. 69. In these figures, polypeptide concentration in the reaction solution is expressed as its bovine trypsin-inhibiting activity. Also, remaining human elastase activity was expressed by percentage based on the absorbance of a control reaction mixture in which 50 μl of the 0.1% BSA/27 mM CaCl2 /133 mM Tris-HCl buffer (pH 7.5) was used instead of the test sample or the control.

[2] = biological target: T2, human FXa (Homo sapiens, UniProt P00742); assay: FXa-inhibiting activity (synthetic substrate S-2222); type: biochemical; conditions: relative to control AN68; concentration expressed as bovine trypsin-inhibiting activity
T2 construct: purchased American Diagnostica Inc
T2 sequence (P00742 235-488 limits assumed): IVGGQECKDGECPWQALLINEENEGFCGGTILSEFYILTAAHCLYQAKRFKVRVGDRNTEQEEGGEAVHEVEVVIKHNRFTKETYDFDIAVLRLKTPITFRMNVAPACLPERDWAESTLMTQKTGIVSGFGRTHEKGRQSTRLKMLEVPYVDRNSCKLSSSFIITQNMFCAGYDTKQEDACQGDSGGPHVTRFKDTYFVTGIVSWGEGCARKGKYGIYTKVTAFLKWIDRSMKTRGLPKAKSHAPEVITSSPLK
T2 sequence (P00742 41-179 partner limits assumed): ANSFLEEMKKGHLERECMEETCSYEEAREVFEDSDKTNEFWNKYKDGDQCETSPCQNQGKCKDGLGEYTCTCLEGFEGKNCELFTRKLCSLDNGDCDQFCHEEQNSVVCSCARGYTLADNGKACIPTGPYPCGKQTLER
Method: The purified polypeptide of the present invention was dissolved in 100 μl of distilled water. Polypeptide concentration of this solution was determined based on its bovine trypsin-inhibiting activity measured in accordance with the above procedure (1) using the aforementioned UTI as a standard. The thus prepared solution was then diluted to various concentration levels with 0.1% BSA/150 mM NaCl/5 mM CaCl2 /50 mM Tris-HCl buffer (pH 8.3) for use in the activity measurement. Separately from this, a polypeptide TN70 (cf. Japanese Patent Application No. 3-325220) and polypeptide AN68 were purified respectively in accordance with the procedure of Example 2(4) from a culture supernatant of E. coli JE5505(pM552) (deposit No., FERM BP-3561) and E. coli JE5505(pM594) obtained by transforming E. coli JE5505 with the aforementioned plasmid pM594 obtained in Example 4. The thus purified polypeptide TN70 and AN68 were diluted to various concentration levels to be used as control solutions.
Using a synthetic compound S-2222 (Daiichi Pure Chemicals Co., Ltd.) as a substrate, FXa-inhibiting activities in the thus prepared test sample solution and control solution were measured in accordance with the method of Ohno et al. (Ohno H. et al., Thromb. Res., vol.19, pp.579-588, 1980) as follows. First, human FXa (American Diagnostica Inc.) was dissolved in distilled water to a final concentration of 10 PEU/ml and the solution was further diluted with the aforementioned 0.1% BSA/150 mM NaCl/5 mM CaCl2 /50 mM Tris-HCl buffer (pH 8.3) to prepare 0.1 PEU/ml of FXa solution. Separately from this, a 4 mM solution of S-2222 was prepared by dissolving it in distilled water and the solution was further diluted with the 0.1% BSA/150 mM NaCl/5 mM CaCl2 /50 mM Tris-HCl buffer (pH 8.3) to obtain a 2 mM solution of S-2222.
Next, 25 μl of the test sample or control solution was mixed with 100 μl of the 0.1% BSA/150 mM NaCl/5 mM CaCl2 /50 mM Tris-HCl buffer (pH 8.3) and 25 μl of the FXa solution. After incubating statically at 37° C. for 10 minutes, 100 μl of the S-2222 solution was added to start the reaction. The reaction was carried out at 37° C. for 30 minutes and then stopped by adding 50 μl of 50% acetic acid solution to the reaction mixture. Thereafter, absorbance at a wavelength of 405 nm was measured using a spectrophotometer. In this instance, in order to eliminate absorbancy of various contents in the reaction mixture other than the reaction product, a blank solution was prepared by mixing 25 μl of the FXa solution with 50 μl of 50% acetic acid and then with 25 μl of each test sample or the control solution, 100 μl of the 0.1% BSA/150 mM NaCl/5 mM CaCl2 /50 mM Tris-HCl buffer (pH 8.3) and with 100 μl of the S-2222 solution.
The results are shown in FIG. 45 to FIG. 53 and FIG. 66. In these figures, polypeptide concentration in the reaction solution was expressed as its bovine trypsin-inhibiting activity. Also, residual human FXa activity was expressed by percentage based on the absorbance of a control reaction mixture in which 25 μl of the 0.1% BSA/150 mM NaCl/5 mM CaCl2 /50 mM Tris-HCl buffer (pH 8.3) was used instead of the test sample.

B1: R11Q/Q19K/Y46D: formula 1 sequence with Gln for position 7 Arg, Lys for position 15 Gln, Asp for position 42 Tyr; SEQ. I.D. NO. 37 (protein)
chain: AACNLPIVQGPCRAFIKLWAFDAVKGKCVLFPYGGCQGNGNKFDSEKECREYCGVPGDGDEELLRFSN
- elastase-inhibiting activity, times higher than that of polypeptide Q19K/Y46D [1]: about 3 times
- elastase-inhibiting activity, times higher than that of polypeptide AN68 [1]: about 3 times
- FXa-inhibiting activity, times higher than that of polypeptide AN68 [2]: about twenty

B2: R11D/Q19K/Y46D: formula 1 sequence with Asp for position 7 Arg, Lys for position 15 Gln, Asp for position 42 Tyr; SEQ. I.D. NO. 38 (protein)
chain: AACNLPIVDGPCRAFIKLWAFDAVKGKCVLFPYGGCQGNGNKFDSEKECREYCGVPGDGDEELLRFSN
- elastase-inhibiting activity, times higher than that of polypeptide Q19K/Y46D [1]: about 3 times
- elastase-inhibiting activity, times higher than that of polypeptide AN68 [1]: about 3 times
- FXa-inhibiting activity, times higher than that of polypeptide AN68 [2]: about 5 times

B3: R11L/Q19K/Y46D: formula 1 sequence with Leu for position 7 Arg, Lys for position 15 Gln, Asp for position 42 Tyr; SEQ. I.D. NO. 39 (protein)
chain: AACNLPIVLGPCRAFIKLWAFDAVKGKCVLFPYGGCQGNGNKFDSEKECREYCGVPGDGDEELLRFSN
- elastase-inhibiting activity, times higher than that of polypeptide Q19K/Y46D [1]: about 2 times
- elastase-inhibiting activity, times higher than that of polypeptide AN68 [1]: about 2 times
- FXa-inhibiting activity, times higher than that of polypeptide AN68 [2]: about 16 times

B4: R11E/Q19K/Y46E: formula 1 sequence with Glu for position 7 Arg, Lys for position 15 Gln, Glu for position 42 Tyr; SEQ. I.D. NO. 40 (protein)
chain: AACNLPIVEGPCRAFIKLWAFDAVKGKCVLFPYGGCQGNGNKFESEKECREYCGVPGDGDEELLRFSN
- elastase-inhibiting activity, times higher than that of polypeptide Q19K/Y46E ([1]; relative to Q19K/Y46E from E. coli JE5505(pM721)): 6 times
- elastase-inhibiting activity, times higher than that of polypeptide AN68 [1]: about 5 times
- FXa-inhibiting activity, times higher than that of polypeptide AN68 [2]: about 13 times

B5: R11N/Q19K/Y46D: formula 1 sequence with Asn for position 7 Arg, Lys for position 15 Gln, Asp for position 42 Tyr; SEQ. I.D. NO. 41 (protein)
chain: AACNLPIVNGPCRAFIKLWAFDAVKGKCVLFPYGGCQGNGNKFDSEKECREYCGVPGDGDEELLRFSN
- elastase-inhibiting activity, times higher than that of polypeptide Q19K/Y46D [1]: about 5 times
- elastase-inhibiting activity, times higher than that of polypeptide AN68 [1]: about 5 times
- FXa-inhibiting activity, times higher than that of polypeptide AN68 [2]: about 10 times

B6: R11S/Q19K/Y46D: formula 1 sequence with Ser for position 7 Arg, Lys for position 15 Gln, Asp for position 42 Tyr; SEQ. I.D. NO. 42 (protein)
chain: AACNLPIVSGPCRAFIKLWAFDAVKGKCVLFPYGGCQGNGNKFDSEKECREYCGVPGDGDEELLRFSN
- elastase-inhibiting activity, times higher than that of polypeptide Q19K/Y46D [1]: about 10 times
- elastase-inhibiting activity, times higher than that of polypeptide AN68 [1]: about 10 times
- FXa-inhibiting activity, times higher than that of polypeptide AN68 [2]: about 8 times

B7: R11A/Q19K/Y46D: formula 1 sequence with Ala for position 7 Arg, Lys for position 15 Gln, Asp for position 42 Tyr; SEQ. I.D. NO. 43 (protein)
chain: AACNLPIVAGPCRAFIKLWAFDAVKGKCVLFPYGGCQGNGNKFDSEKECREYCGVPGDGDEELLRFSN
- elastase-inhibiting activity, times higher than that of polypeptide Q19K/Y46D [1]: about 4 times
- elastase-inhibiting activity, times higher than that of polypeptide AN68 [1]: about 4 times
- FXa-inhibiting activity, times higher than that of polypeptide AN68 [2]: about 9 times
